Reference: the supplement of paper PMC9112550, “Optimization of the antimicrobial peptide Bac7 by deep mutational scanning” (BMC Biology, 2022)

tested on: Escherichia coli TOP10; experiment: shrunken log2 fold change of peptide-encoding DNA abundance (4.5 h post-induction vs induction); higher = less antimicrobial activity (less host growth inhibition); conditions: time post-induction: 4.5 h; library: site-saturation at positions 5, 18, 19, 20
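Also: peptides expressed intracellularly from a pBAD plasmid library in pooled LB shake-flask culture, induced with 0.3% L-arabinose, DNA abundance read by NGS, three biological replicates, DESeq2 with apeglm shrinkage.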

Point of comparison: RRIRIRPPRLPRPRPRPLVLPRP, “shrunken log2 fold change” value -0.458. Against it:
- RRIRTRPPRLPRPRPRPNFWPRP — higher, 0.31
- RRIRLRPPRLPRPRPRPICQPRP — higher, 0.0108
- RRIRSRPPRLPRPRPRPTIGPRP — higher, 0.0365
- RRIRLRPPRLPRPRPRPISKPRP — higher, -0.125
- RRIRNRPPRLPRPRPRPWFGPRP — higher, -0.208
- RRIRQRPPRLPRPRPRPEPDPRP — higher, 0.271
- RRIRGRPPRLPRPRPRPSEHPRP — higher, 0.149
- RRIRERPPRLPRPRPRPLMHPRP — higher, -0.231
- RRIRIRPPRLPRPRPRPNRQPRP — within 0.2 log units, -0.56
- RRIRERPPRLPRPRPRPCGDPRP — higher, -0.231
- RRIRGRPPRLPRPRPRPLAHPRP — higher, 0.546
- RRIRSRPPRLPRPRPRPLLRPRP — higher, -0.107
- RRIRGRPPRLPRPRPRPIMPPRP — higher, 0.0639
- RRIRNRPPRLPRPRPRPDGMPRP — higher, 0.0319
- RRIRFRPPRLPRPRPRPRSRPRP — higher, -0.016
- RRIRARPPRLPRPRPRPHEPPRP — higher, 0.00298
- RRIRCRPPRLPRPRPRPGMYPRP — lower, -0.848
- RRIRRRPPRLPRPRPRPIPMPRP — higher, 0.287
- RRIRKRPPRLPRPRPRPLLDPRP — higher, 0.246
- RRIRERPPRLPRPRPRPEWVPRP — higher, 0.241
- RRIRYRPPRLPRPRPRPYHMPRP — higher, -0.00245
- RRIRVRPPRLPRPRPRPLCAPRP — higher, 0.17
- RRIRLRPPRLPRPRPRPYSPPRP — within 0.2 log units, -0.299
- RRIRERPPRLPRPRPRPCRYPRP — higher, -0.00318
- RRIRLRPPRLPRPRPRPYEQPRP — higher, -0.104
- RRIRVRPPRLPRPRPRPHEHPRP — higher, -0.0873
- RRIRLRPPRLPRPRPRPRSAPRP — higher, 0.29
- RRIRRRPPRLPRPRPRPWEMPRP — higher, -0.171
- RRIRLRPPRLPRPRPRPDHFPRP — higher, 0.0304
- RRIRERPPRLPRPRPRPQVWPRP — higher, -0.0702
- RRIRDRPPRLPRPRPRPQNDPRP — higher, -0.215
- RRIRTRPPRLPRPRPRPHWVPRP — higher, 0.381
- RRIRGRPPRLPRPRPRPFSSPRP — higher, 0.193
- RRIRTRPPRLPRPRPRPTSKPRP — within 0.2 log units, -0.343
- RRIRCRPPRLPRPRPRPDSSPRP — higher, -0.026
- RRIRLRPPRLPRPRPRPSLWPRP — higher, 0.062
- RRIRKRPPRLPRPRPRPTQFPRP — higher, 1.1
- RRIRSRPPRLPRPRPRPMITPRP — higher, -0.19
- RRIRERPPRLPRPRPRPVSTPRP — higher, -0.199
- RRIRSRPPRLPRPRPRPKILPRP — higher, -0.112
- RRIRTRPPRLPRPRPRPKAAPRP — higher, 0.565
- RRIRGRPPRLPRPRPRPMVVPRP — higher, 0.434
- RRIRCRPPRLPRPRPRPWMEPRP — within 0.2 log units, -0.344
- RRIRFRPPRLPRPRPRPDVWPRP — higher, 0.128
- RRIRVRPPRLPRPRPRPVNEPRP — higher, 0.0839
- RRIRIRPPRLPRPRPRPTWDPRP — higher, 0.372
- RRIRNRPPRLPRPRPRPMTCPRP — higher, -0.0075
- RRIRYRPPRLPRPRPRPMLWPRP — higher, -0.0139
- RRIRWRPPRLPRPRPRPWWFPRP — higher, 0.0217
- RRIRTRPPRLPRPRPRPSDPPRP — within 0.2 log units, -0.429
- RRIRARPPRLPRPRPRPRKPPRP — higher, 0.114
- RRIRIRPPRLPRPRPRPLCAPRP — higher, -0.183
- RRIRPRPPRLPRPRPRPIYWPRP — higher, 0.00563
- RRIRGRPPRLPRPRPRPQFSPRP — higher, 0.0687
- RRIRGRPPRLPRPRPRPVIDPRP — higher, 0.292
- RRIRMRPPRLPRPRPRPLFQPRP — within 0.2 log units, -0.279
- RRIRQRPPRLPRPRPRPPNMPRP — higher, -0.089
- RRIRSRPPRLPRPRPRPAHAPRP — higher, 0.121
- RRIRPRPPRLPRPRPRPMHEPRP — higher, 0.297
